According to article PMC12139779 (bioRxiv, 2025):

Target: T1, Human KLHDC2 (kelch domain, amino acids 1–362) (human, UniProt Q9Y2U9 1-362, biotin (biotinylated with BirA enzyme))
T1 sequence: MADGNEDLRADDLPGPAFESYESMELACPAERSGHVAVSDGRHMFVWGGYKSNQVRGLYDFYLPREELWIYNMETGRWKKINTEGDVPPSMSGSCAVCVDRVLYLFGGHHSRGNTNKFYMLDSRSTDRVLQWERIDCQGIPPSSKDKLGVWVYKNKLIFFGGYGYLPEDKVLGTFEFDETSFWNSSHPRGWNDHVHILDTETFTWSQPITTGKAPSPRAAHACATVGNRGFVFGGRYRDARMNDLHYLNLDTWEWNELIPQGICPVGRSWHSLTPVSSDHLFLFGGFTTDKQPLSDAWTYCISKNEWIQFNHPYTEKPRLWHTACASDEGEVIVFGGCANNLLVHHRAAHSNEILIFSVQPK
Experiment: fluorescence polarisation

Question: Does SPPPMAGG [SelK 8-mer (SPPPMAGG)] bind?
Answer: Result: binds
